From patent US20180021429A1, “ANTICANCER AGENTS OR ANTIMETASTATIC AGENTS USING FSTL1 AND COMBINATION DRUG THEREOF” (PHARMA FOODS INTERNATIONAL CO., LTD., priority 2015, published 2018)
Entries after “also recorded” stand apart in the source; their conditions may differ.

How the values were obtained:
mouse FSTL1 [1] = biological target: T1, mouse FSTL1 (Mus musculus, UniProt Q62356); experiment: ELISA, binding activity of purified antibody against mouse FSTL1 (Example 2)
T1 construct: AAA linker + 10xHis (C); made in house; host or cells: Expi293 (transient expression; purified from culture supernatant on HisPur Cobalt Resin)
T1 sequence (Q62356 with tags, fused parts or gaps): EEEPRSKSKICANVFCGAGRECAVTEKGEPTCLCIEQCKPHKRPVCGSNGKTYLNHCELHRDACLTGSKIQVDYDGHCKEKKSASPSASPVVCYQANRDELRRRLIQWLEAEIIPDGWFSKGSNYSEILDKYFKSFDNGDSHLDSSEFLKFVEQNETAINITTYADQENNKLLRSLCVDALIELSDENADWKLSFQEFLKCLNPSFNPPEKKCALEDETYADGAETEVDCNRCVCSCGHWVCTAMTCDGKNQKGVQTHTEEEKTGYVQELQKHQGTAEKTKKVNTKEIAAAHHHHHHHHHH
Experimental: (§1) The reactivity of the obtained antibody clones described above with FSTL1 was evaluated by ELISA under the following conditions.
(§2) Antibodies used: anti-dinitrophenyl (DNP) antibody (negative control), #5-2, #5-3, #5-8, #5-10, #5-43, #6-55, and #7-34
FIGS. 64 and 65 show results of evaluating binding activity under the condition of Table 3 as to clones differing in screening and antibody purification timings.

mouse FSTL1 [2] = biological target: T1, mouse FSTL1; experiment: ELISA binding activity of purified antibody against mouse FSTL1 (Example 2)
Experimental: as §1
(Table 2 ELISA conditions for binding activity evaluation of purified antibody) Antibodies used: anti-dinitrophenyl (DNP) antibody (negative control), #5-2, #5-3, #5-8, #5-10, #5-43, #6-55, and #7-34
FIGS. 2 and 3 show results of evaluating binding activity under the condition of Table 3 as to clones differing in screening and antibody purification timings.
as §2
FIGS. 32 and 33 show results of evaluating binding activity under the condition of Table 3 as to clones differing in screening and antibody purification timings.

[3] = test system: induction of MSCs, cancer-associated MSCs, and M-MDSCs by FSTL1; experiment: Inhibitory activity against induction of MSC, cancer-associated MSC and MDSC by FSTL1 (Examples 13-15); assay type: cell-based, mouse
Experimental: Mouse bone marrow cells prepared in the same way as in Example 4 were supplemented with 20 ng/mL (final concentration) of FSTL1 and 10 μg/mL of the anti-FSTL1 antibody (#6-55, #7-34, #8-1, or #8-4), an anti-PD-L1 antibody reported to have an immunosuppression-mitigating effect, or a control antibody anti-DNP antibody and cultured under stimulation. 8 days thereafter, the number of cells was counted while the cells were stained with a PE-Cy5-labeled anti-CD45 antibody, a PE-labeled anti-ALCAM antibody, a FITC-labeled anti-CD271 antibody (Abcam plc, Cat. No. AB62122), a FITC-labeled anti-CD11b antibody (BD Pharmingen/Becton, Dickinson and Company, Cat. No. 553310), and a PE-Cy5-labeled anti-Gr1 antibody (eBioscience, Cat. No. 15-5931) in order to detect MSCs (CD45-negative cells), cancer-associated MSCs (CD45-negative, ALCAM-positive, and CD271-positive cells) which are MSCs increasing in number in association with cancer metastasis, and monocytic myeloid-derived suppressor cells (M-MDSCs: CD11b-positive, Gr1-positive, and ALCAM-positive cells) increasing in number together with cancer-associated MSCs, and the contents of the cells mentioned above were analyzed by flow cytometry using FACScan to calculate the percentage and number of MSCs per culture (FIG. 8). […] PD-L1 is expressed in MSC and presumably influences the induction of MSCs.
The antibody clone (#6-55, #7, #10, #13, or […]) was evaluated for its activity by the same testing method as in Example 13. #6-55 was set as a positive control for activity. […] Mouse bone marrow cells were supplemented with FSTL1 and the predetermined concentration of each antibody and cultured for 8 days. 5×10^4 cells/well were separated from each culture system and evaluated for the ability to differentiate into adipocytes using an adipocyte differentiation reagent included in “Mesenchymal Stem Cell Functional Identification Kit (R&D Systems, Inc., Cat. No. SC010)”. For the evaluation method, the cells were supplemented with the adipocyte differentiation reagent and cultured for 8 days. Then, adipocytes per culture system were counted under a microscope for evaluation. In the graph, none is depicted in the leftmost bar, and the control antibody is depicted in the second bar from the left followed by the anti-FSLT1 antibody clones. […]
Mouse bone marrow cells (bone marrow cells prepared in the same way as in Example 4) were supplemented with 20 ng/mL (final concentration) of FSTL1 and 20.0, 10.0, 5.0, or 2.5 μg/ml (final concentration) of the rat anti-FSTL1 antibody or #6-55. […] The cells were cultured for 8 days, and the inhibitory activity of each antibody against the induction of MSCs, cancer-associated MSCs, and M-MDSCs by FSTL1 was evaluated in the same way as in Example 13 (FIG. 10A). […]

[4] = cross reactivity test, antibody diluted from 1000 ng/ml
[5] = antibody diluted from 100 ng/ml
[6] = Example 14, FIG. 9A/39A, #6-55 as positive control

B1: #6-55: chicken-mouse chimeric anti-FSTL1 antibody clone; variable regions SEQ ID NO: 783 (light), 785 (heavy) (antibody, V domains shown)
VH: AVTLDESGGGLQTPGGALSLVCKGSGFTFTSVTMQWVRQAPGKGLEWVASVCSGSSTYYAPAVKGRATISRDNGQSTVRLQLSNLRPEDTGTYYCAKIAGRARWSCTSAAYNIDAWGHGTEVIVSS
VL: ASTQPSSVSAIPGETVKITCSGGGNNYGWYQQRSPGSAPVTVIYYNDNRPSNIPSRFSGSTSGSTSTLTITGVQADDEAIYYCGSWDSNTDSGIFGAGTTLTVL
modifications: mouse constant regions
binding activity against mouse FSTL1 (mouse FSTL1 [1]; [4]): specific and equivalently strong binding activity | binding activity against mouse FSTL1 (mouse FSTL1 [2]; FIG. 1B/31B): specific and equivalently strong binding activity | dose dependence ([3]; Example 15, FIG. 10A/40A, 2.5-20.0 μg/ml): No dose-dependent effect was confirmed; also recorded: dose dependence was not confirmed | inhibitory activity against the induction of MSCs, cancer-associated MSCs, and M-MDSCs by FSTL1 ([3]; Example 15, FIG. 10A/40A, FSTL1 20 ng/mL, antibody 20.0, 10.0, 5.0, 2.5 μg/ml, 8 days): slightly superior; also recorded: at the same level

B2: #7-34: chicken-mouse chimeric anti-FSTL1 antibody clone; variable regions SEQ ID NO: 787 (light), 789 (heavy) (antibody, V domains shown)
VH: AVTLDESGGGLQTPGGGLSLVCKASGFTFSSVTMQWVRQAPGKGLEWVASICSGSSTYYGPAVKGRATISRDNGQNTVRLQLNNLRAEDTATYYCAKIVGRGRWSCTSAAYNIDAWGHGTEVIVSS
VL: ASTQPSSVSANPGETVKITCSGGGNNYGWYQQKSPGSAPVTVIYYNNNRPSNIPSRFSGSTSGSTSTLTITGVQAEDEAVYYCGSYEGSTDSGIFGAGTTLTVL
modifications: mouse constant regions
binding activity against mouse FSTL1 (mouse FSTL1 [1]; [4]): specific and equivalently strong binding activity | binding activity against mouse FSTL1 (mouse FSTL1 [2]; FIG. 1B/31B): specific and equivalently strong binding activity

B3: #5-8: chicken-mouse chimeric anti-FSTL1 antibody clone; variable regions SEQ ID NO: 771 (light), 773 (heavy) (antibody, V domains shown)
VH: AVTLDESGGGLQTPGGGLSLVCKGSGFTFSSFNMFWVRQAPGKGLEWVAGIGKDGVPKYGTAVDGRATISKDNGQSTMRLQLNNLRAEDTGTYFCAKAAGGCSYDWCGIYTGDIDTWGHGTEVIVSS
VL: ASTQPSSVSANPGEAVKITCSGGSGSYYGWYQQKSPGSAPVTVIYNNNQRPSDIPSRFSGSKSGSTATLTITGVQAEDEAVYFCGGYDSSTGHGGIFGAGTTLTVL
modifications: mouse constant regions
binding activity against mouse FSTL1 (mouse FSTL1 [1]; [5]): exhibited no binding activity | binding activity against mouse FSTL1 (mouse FSTL1 [2]; FIG. 3B/33B): no binding activity

B4: #8-1: chicken-mouse chimeric anti-FSTL1 antibody clone; variable regions SEQ ID NO: 791 (light), 793 (heavy) (antibody, V domains shown)
VH: AVTLDESGGGLQTPGGALSLVCKGSGFTFSSFNMFWVRQAPGKGLEWVAGIGKDGVPKYGAAVDGRATISKDNGQSTMRLQLNNLRAEDTGTYFCAKAAGGCSYDWCGIYAGDIDTWGHGTEVIVSS
VL: ASTQPSSVSANPGEAVKITCSGGSGSYYGWYQQKSPGSAPVTVIYNNNQRPSDIPSRFSGSKSGSTATLTITGVQAEDEAVYFCGGYDSSSGHGGIFGAGTTLTVL
modifications: mouse constant regions
binding activity against mouse FSTL1 (mouse FSTL1 [1]; [5]): slightly exhibited binding activity; also recorded: very slightly exhibited binding activity | binding activity against mouse FSTL1 (mouse FSTL1 [2]; FIG. 3B/33B): slightly exhibited binding activity; also recorded: very slightly exhibited binding activity

B5: #8-4: chicken-mouse chimeric anti-FSTL1 antibody clone; variable regions SEQ ID NO: 795 (light), 797 (heavy) (antibody, V domains shown)
VH: AVTLDESGGGLQTPGGGLSLVCKGSGFTLSSFNMFWVRQAPGKGLEWVAGVGKDGGTAYGAAVDGRATISRDSGQSTVRLQLNNLRAEDTGTYFCAKAAGGCSYSWCGAYVGDLDAWGHGTEVIVSS
VL: ASSQPSSVSANPGETVKITCSGGSGYYYGWYQQKSPGSAPVTVIYNNDNKPSDIPSRFSGSKSGSTGTLTITGVQVEDEAVYFCGGYDNSGTGIFGAGTTLTVL
modifications: mouse constant regions
binding activity against mouse FSTL1 (mouse FSTL1 [1]; [5]): exhibited no binding activity | binding activity against mouse FSTL1 (mouse FSTL1 [2]; FIG. 3B/33B): no binding activity

B6: #13: chicken-mouse chimeric anti-FSTL1 antibody clone; variable regions SEQ ID NO: 815 (light), 817 (heavy) (antibody, V domains shown)
VH: AVTLDESGGGLQTPGGGLSLVCKASGFTFSSVTMQWVRQAPGKGLEWVASICSGSSTYYGPAVKGRATISRDNGQNTVRLQLNNLRAEDTATYYCAKIVGRGRWSCTSAAYNIDAWGHGTEVIVSS
VL: ASTQPSSVSANPGETVKITCSGGGNNYGWYQQKSPGSAPVTVIYNNNNRPSNIPSRFSGSKSGSTNTLTITGVQAEDEAVYYCGSYDSSSDSGIFGAGTTLTVL
modifications: mouse constant regions
inhibitory activity against the induction of MSCs, cancer-associated MSCs, and M-MDSCs by FSTL1 [3, 6]: inhibitory activity equivalent to or higher than that of the positive control (#6-55); also recorded: inhibitory activity equivalent to or higher than that of the positive control (16-55)

B7: #33: chicken-mouse chimeric anti-FSTL1 antibody clone; variable regions SEQ ID NO: 823 (light), 825 (heavy) (antibody, V domains shown)
VH: AVTLDESGGGLQTPGGGLSLVCKASGFTFSSFNMNWVRQAPGKGLEYVAEISGTGSSTYYGSAVKGRATISRDNGQSTVRLQLNNLRAEDTATYFCARGDGAYSIDAWGHGTEVIVSS
VL: ASTQPSSVSANPGETVEITCSGDSSYYGWFQQKSPGSAPVTVIYDNTNRPSDIPSRFSGSKSGSTATLTITGVRAEDEAVYYCGGYDSSTYDGIFGAGTTLTVL
modifications: mouse constant regions
inhibitory activity against the induction of MSCs, cancer-associated MSCs, and M-MDSCs by FSTL1 [3, 6]: inhibitory activity equivalent to or higher than that of the positive control (#6-55); also recorded: inhibitory activity equivalent to or higher than that of the positive control (16-55)
